This experiment concerns the target full length human CCR8 (hCCR8) (human) (UniProt P51685).

B1: benchmark anti-CCR8 antibody 4A19 (Bristol Myers Squibb) (antibody, from another filing, IgG1, V domains shown)
VH: QVQLVQSGAEVKKPGASVKVSCKASGYTFTDSEMHWVRQATGQGLEWMGAIQPETGGTAYNQKFKARVTMTRDTSISTAYMELSSLRSEDTAVYYCARRRRNFDYWGQGTLVTVSS
VL: DIVMTQTPLSLSVTPGQPASISCRSSQSLFHSSGNTYLHWYLQKPGQPPQLLIYKVSNRFSGVPDRFSGSGSGTDFTLKISRVEAEDVGVYYCSQSTHVPFTFGQGTKLEIKR
B1: the IC50, inhibition of chemotaxis of hCCR8-transfected P815 cells to 1 nM CCL1 (intact IgG1, Cell Titer Glo) stood at 6.53 ng/mL.

The values are drawn from US20230279130A1.
